Experimental data reported in paper PMC5942779, “Identification of a peptide inhibitor for the histone methyltransferase WHSC1” (PLoS ONE, 2018).

Columns and labels:
[1] = molecular target: WHSC1L1 1054–1285 (UniProt O96028)
[2] = molecular target: WHSC1 941–1240 (UniProt O96028)
WHSC1 941–1240, sequence (O96028 941-1240): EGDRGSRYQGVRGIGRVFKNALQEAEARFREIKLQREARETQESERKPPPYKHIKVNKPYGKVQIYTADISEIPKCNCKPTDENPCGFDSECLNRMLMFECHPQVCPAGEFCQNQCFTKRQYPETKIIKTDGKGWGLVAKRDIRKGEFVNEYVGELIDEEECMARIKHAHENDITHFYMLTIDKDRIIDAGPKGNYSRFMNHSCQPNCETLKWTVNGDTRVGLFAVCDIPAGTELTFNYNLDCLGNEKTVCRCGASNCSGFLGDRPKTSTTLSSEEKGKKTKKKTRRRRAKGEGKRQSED

WHSC1L1 1054–1285, sequence (O96028 1054-1285): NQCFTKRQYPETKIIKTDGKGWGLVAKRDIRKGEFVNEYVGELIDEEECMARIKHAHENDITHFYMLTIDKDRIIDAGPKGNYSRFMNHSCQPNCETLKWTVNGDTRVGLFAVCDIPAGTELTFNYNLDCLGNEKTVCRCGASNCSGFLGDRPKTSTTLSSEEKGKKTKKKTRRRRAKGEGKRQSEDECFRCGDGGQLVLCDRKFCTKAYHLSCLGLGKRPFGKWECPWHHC

Ac-GVARI-NH2 [PTD3]
Biochemical IC50: inhibition of 3H-methyl transfer from SAM to the biotinylated H4 peptide by WHSC1L1 1054–1285 [1]: > 1000 µM
Biochemical IC50: inhibition of 3H-methyl transfer from SAM to the biotinylated H4 peptide by WHSC1 941–1240 [2]: 640 µM
